# Test: label from the status in PepcDB records
row,Sequence,protein production
1,MVQVPPPPPTGFADHASAAEDREAGDGPAPSIAEGLSAALFQSVVEALPVGTALLRDGVIVHANATLAGQIGETIDTLIGSPLTSYLTPADALAVQKVVEGAIALHGGVPVRRIAHIRHISGSERVYSLRFSPLDNGPHPLLVVITRDMTAQVAAENALRAAEGKYRAIFENAVEGIYQSTPDGTYLDVNPALARIYGYASPAELIAHFTDIASQLYVDGTKRGEFQRLMRETGEVRDFTAEVWRCDGHTIWITENARCVRGPDNEVLYYEGTVEDITAQRQSQETMRLLGKVFTSIAEGIVLLERDLTVRTVNPAFEAMTGLLRQDMEGRPARLFASGLHENDFLATVAAEVDRAGLWRGEIWGERREGPPYSGEMTVTAVRTRAGETTHYVAAITDITKRKRDEEHIRFQANFDMLTHLPNRHLIMDRLEQAMHQAQRTGRQVCVMFLDLDRFKQINDSYGHSAGDEVLKLTARRLRNCVRISDSVGRLGGDEFIVILSNVEDQHAGAYIAEKILYSLSEPFPIGGTEVFCIPSVGITYFPDHGETAPDLLRNADVAMYHAKQGGERRYAIFTPDMARRSLALLTMESDLRHALARDEFELHFQPKVRADLTLIGAEALIRWRHPEKGLINPGDFIPLAEESGLILPIGRWTLREACDRVMSWRAEGLTIPSVSVNVSPRQFQDQTLVETVRQILVETGLEPEALDLEITETVMTGDVEHAVGTLRALKDLGVTLSIDDFGTGYSSLNYLKTFPIDTLKIDQTFVRDVLHSGKDAAIVSTIIALARNLGFSVVAEGVEEIEQAEFLGSRDCQNFQGFLYSRPLPPAEFTTFLRTAKLETATPPDLVPSIAPGP,failed
2,MNQEVRFSRLEPEQRKALLIEATLACLKRHGFQGASVRKICAEAGVSVGLINHHYDGKDALVAEAYLAVTGRVMRLLRGAIDTAPGGARPRLSAFFEASFSAELLDPQLLDAWLAFWGAVGSIEAIGRVHDHSYGEYRALLVGVLRQLAEEGGWADFDAELAAISLSALLDGLWLESGLNPATFTPRQGVQICEAWVDGLEAGAHRRFRRAMEAC,not failed
3,MTLDAAPHLHPAVLSPRPQPGRHRRDLHQSSRAFVLLTCIVATLALMLSLPAGLQAAEATVIVPFGGGILRDDAQTVAAAAARIEALRLSTASLGRDSAALFSAETPARLLSLTAATFEAHTTATSVVGYPPEVEVAVNIRTTPRGGDAATALRAALRAPEKLELREGILLHTRENLLEARQLALDAARHRQKAGTESESPYDRRFAALARTLRSLDTLERALSYLDGVWRHPIILAADMRQVVEASPEMPLGWTFLGEALLQLDRPQDAVEALDRALALPDAPVRARLARGIANLRLDLTALAVDDLSRVLREAPRLAPAWRARGAARMMRREYGPMCEDFIQACNLGDCEGLASARDAGHCLAPARPQTVKADD,failed
4,MKSQNPSKRNLPGVIIAYFLIYVVWGSTYFFIGVALKDFSPFLLGALRFTTAGLILLGICYLRGEQIFKKSLVKRSAVSGIVLLFVDMAVVMLAQRYLTSSLVAIIASSTALWILLLDVPMWRTNFRNPLTIAGGGIGFGGVVMLYAEQLNAEWLHPQSERGILLLVFGCISWALGTLYAKYRSSREEEVNAFAGSAWQMLFASVMFWICAVVNGDVREADLSTVSVTSWFSLLYLISFGSLLAYSAYVWLLKVRPAAEVGTHAYVNPFIAVLLGVSFGNEQVTFVQLSGLLVILLGVMLISRKRNKMKSTAISR,failed
5,MMIGENKNRPHPTIHIPQWDQINDPTATISSPFSSVNLNSVNDYPHSPSPYLDSFASLFRYLPSNELTNDSDSSSGDESSPLTDSFSSDEFRIYEFKIRRCARGRSHDWTECPFAHPGEKARRRDPRKFHYSGTACPEFRKGSCRRGDSCEFSHGVFECWLHPSRYRTQPCKDGTSCRRRICFFAHTTEQLRVLPCSLDPDLGFFSGLATSPTSILVSPSFSPPSESPPLSPSTGELIASMRKMQLNGGGCSWSSPMRSAVRLPFSSSLRPIQAATWPRIREFEIEEAPAMEFVESGKELRAEMYARLSRENSLG,failed
6,MRELLKVTLIVMLVLINAFFVACEFAMVKLRSSRIDTMITEGNNNAKRCKIIKDNLNSYLSACQLGITLCSLALGWMGESTVKELILPIVSVFNLSESIIYTISISISFLIITMMEVVIGELVPKALALYNTEKIMLSTSFLLVGFYKLTYPIIYFFNLSTDLFLKPFGYSQADEVDEPHTGDEIRLLVEESYKSGLIDESEQRLVDNIFEFEEKKIREIMVPRTDMVCIYESDSEEKILAILKEEGVTRYPVCRKNKDDILGFVHIRDLYNQKINENKIELEEILRDIIYISENLTIDKALERIRKEKLQLAIVVDEYGGTSGVVTIEDILEEIVGEIQDEFDKEETHIKKIGAGSYLVDGTESINYINKYFGLDIEHDGFDSIGGWISYMLGSNIKVNQSVTFENYNFTILELDKLRVVKLIIKSVI,failed

# Reference: a protein production outcome set (Wang et al. 2014)
